Results reported in patent US11965039B2, “Compstatin analogues and their medical uses” (priority 2018, dated 2024).
Starred links: 1 amine or outer side, 2 acyl side, 3 side chain; linkers in the order of their positions; H or OH if unused. Positions of bridges follow the written chain, without caps; N, C: chain ends. Non-standard residues stand in square brackets, D forms with d. X1 = K(γGlu-G-γGlu-17-carboxy-heptadecanoyl), O=C(O)CCCCCCCCCCCCCCCCC(=O)N[C@@H](CCC(=O)NCC(=O)N[C@@H](CCC(=O)NCCCC[C@H](N[*:1])C(=O)[*:2])C(=O)O)C(=O)O; Trp(1-Me) = Cn1cc(C[C@H](N)C(=O)O)c2ccccc21; AEEA = NCCOCCOCC(=O)O; Sar = CNCC(=O)O

B1: Compound 22 (peptide)
peptide: Ac-ICIWQDWGEHRCE-NH2
modifications: disulfide 2-12
SMILES: CC[C@H](C)[C@H](NC(C)=O)C(=O)N[C@H]1CSSC[C@@H](C(=O)N[C@@H](CCC(=O)O)C(N)=O)NC(=O)[C@H](CCCNC(=N)N)NC(=O)[C@H](Cc2c[nH]cn2)NC(=O)[C@H](CCC(=O)O)NC(=O)CNC(=O)[C@H](Cc2c[nH]c3ccccc23)NC(=O)[C@H](CC(=O)O)NC(=O)[C@H](CCC(N)=O)NC(=O)[C@H](Cc2c[nH]c3ccccc23)NC(=O)[C@H]([C@@H](C)CC)NC1=O
B2: Compound 145 (peptide)
peptide: Ac-EFCI[Trp(1-Me)]QDWGEHRC[Sar]EA-{AEEA-AEEA-X1-NH2}
modifications: disulfide 3-13
SMILES: CC[C@H](C)[C@@H]1NC(=O)[C@@H](NC(=O)[C@H](Cc2ccccc2)NC(=O)[C@H](CCC(=O)O)NC(C)=O)CSSC[C@@H](C(=O)N(C)CC(=O)N[C@@H](CCC(=O)O)C(=O)N[C@@H](C)C(=O)NCCOCCOCC(=O)NCCOCCOCC(=O)N[C@@H](CCCCNC(=O)CC[C@H](NC(=O)CNC(=O)CC[C@H](NC(=O)CCCCCCCCCCCCCCCCC(=O)O)C(=O)O)C(=O)O)C(N)=O)NC(=O)[C@H](CCCNC(=N)N)NC(=O)[C@H](Cc2c[nH]cn2)NC(=O)[C@H](CCC(=O)O)NC(=O)CNC(=O)[C@H](Cc2c[nH]c3ccccc23)NC(=O)[C@H](CC(=O)O)NC(=O)[C@H](CCC(N)=O)NC(=O)[C@H](Cc2cn(C)c3ccccc23)NC1=O
B3: Compound 9 (peptide)
peptide: Ac-YCIWQDWGEHRCT-NH2
modifications: disulfide 2-12
SMILES: CC[C@H](C)[C@@H]1NC(=O)[C@@H](NC(=O)[C@H](Cc2ccc(O)cc2)NC(C)=O)CSSC[C@@H](C(=O)N[C@H](C(N)=O)[C@@H](C)O)NC(=O)[C@H](CCCNC(=N)N)NC(=O)[C@H](Cc2c[nH]cn2)NC(=O)[C@H](CCC(=O)O)NC(=O)CNC(=O)[C@H](Cc2c[nH]c3ccccc23)NC(=O)[C@H](CC(=O)O)NC(=O)[C@H](CCC(N)=O)NC(=O)[C@H](Cc2c[nH]c3ccccc23)NC1=O
B4: Compound 14 (peptide)
peptide: Ac-ESSAICIWQDWGEHRCTGAES-NH2
modifications: disulfide 6-16
SMILES: CC[C@H](C)[C@H](NC(=O)[C@H](C)NC(=O)[C@H](CO)NC(=O)[C@H](CO)NC(=O)[C@H](CCC(=O)O)NC(C)=O)C(=O)N[C@H]1CSSC[C@@H](C(=O)N[C@H](C(=O)NCC(=O)N[C@@H](C)C(=O)N[C@@H](CCC(=O)O)C(=O)N[C@@H](CO)C(N)=O)[C@@H](C)O)NC(=O)[C@H](CCCNC(=N)N)NC(=O)[C@H](Cc2c[nH]cn2)NC(=O)[C@H](CCC(=O)O)NC(=O)CNC(=O)[C@H](Cc2c[nH]c3ccccc23)NC(=O)[C@H](CC(=O)O)NC(=O)[C@H](CCC(N)=O)NC(=O)[C@H](Cc2c[nH]c3ccccc23)NC(=O)[C@H]([C@@H](C)CC)NC1=O
B5: Compound 12 (peptide)
peptide: Ac-ICIWQDWGAHRCE-NH2
modifications: disulfide 2-12
SMILES: CC[C@H](C)[C@H](NC(C)=O)C(=O)N[C@H]1CSSC[C@@H](C(=O)N[C@@H](CCC(=O)O)C(N)=O)NC(=O)[C@H](CCCNC(=N)N)NC(=O)[C@H](Cc2c[nH]cn2)NC(=O)[C@H](C)NC(=O)CNC(=O)[C@H](Cc2c[nH]c3ccccc23)NC(=O)[C@H](CC(=O)O)NC(=O)[C@H](CCC(N)=O)NC(=O)[C@H](Cc2c[nH]c3ccccc23)NC(=O)[C@H]([C@@H](C)CC)NC1=O
B6: Compound 11 (peptide)
peptide: Ac-[Sar]CIWQDWGEHRCT-NH2
modifications: disulfide 2-12
SMILES: CC[C@H](C)[C@@H]1NC(=O)[C@@H](NC(=O)CN(C)C(C)=O)CSSC[C@@H](C(=O)N[C@H](C(N)=O)[C@@H](C)O)NC(=O)[C@H](CCCNC(=N)N)NC(=O)[C@H](Cc2c[nH]cn2)NC(=O)[C@H](CCC(=O)O)NC(=O)CNC(=O)[C@H](Cc2c[nH]c3ccccc23)NC(=O)[C@H](CC(=O)O)NC(=O)[C@H](CCC(N)=O)NC(=O)[C@H](Cc2c[nH]c3ccccc23)NC1=O
B7: Compound 143 (peptide)
peptide: Ac-SEFCI[Trp(1-Me)]QDWGEHRC[Sar]EGE-{AEEA-AEEA-AEEA-X1-NH2}
modifications: disulfide 4-14
SMILES: CC[C@H](C)[C@@H]1NC(=O)[C@@H](NC(=O)[C@H](Cc2ccccc2)NC(=O)[C@H](CCC(=O)O)NC(=O)[C@H](CO)NC(C)=O)CSSC[C@@H](C(=O)N(C)CC(=O)N[C@@H](CCC(=O)O)C(=O)NCC(=O)N[C@@H](CCC(=O)O)C(=O)NCCOCCOCC(=O)NCCOCCOCC(=O)NCCOCCOCC(=O)N[C@@H](CCCCNC(=O)CC[C@H](NC(=O)CNC(=O)CC[C@H](NC(=O)CCCCCCCCCCCCCCCCC(=O)O)C(=O)O)C(=O)O)C(N)=O)NC(=O)[C@H](CCCNC(=N)N)NC(=O)[C@H](Cc2c[nH]cn2)NC(=O)[C@H](CCC(=O)O)NC(=O)CNC(=O)[C@H](Cc2c[nH]c3ccccc23)NC(=O)[C@H](CC(=O)O)NC(=O)[C@H](CCC(N)=O)NC(=O)[C@H](Cc2cn(C)c3ccccc23)NC1=O
B8: Compound 10 (peptide)
peptide: Ac-ESSAYCIWQDWGEHRCT-NH2
modifications: disulfide 6-16
SMILES: CC[C@H](C)[C@@H]1NC(=O)[C@@H](NC(=O)[C@H](Cc2ccc(O)cc2)NC(=O)[C@H](C)NC(=O)[C@H](CO)NC(=O)[C@H](CO)NC(=O)[C@H](CCC(=O)O)NC(C)=O)CSSC[C@@H](C(=O)N[C@H](C(N)=O)[C@@H](C)O)NC(=O)[C@H](CCCNC(=N)N)NC(=O)[C@H](Cc2c[nH]cn2)NC(=O)[C@H](CCC(=O)O)NC(=O)CNC(=O)[C@H](Cc2c[nH]c3ccccc23)NC(=O)[C@H](CC(=O)O)NC(=O)[C@H](CCC(N)=O)NC(=O)[C@H](Cc2c[nH]c3ccccc23)NC1=O
B9: Compound 17 (peptide)
peptide: Ac-ICIWQDWGDHRCT-NH2
modifications: disulfide 2-12
SMILES: CC[C@H](C)[C@H](NC(C)=O)C(=O)N[C@H]1CSSC[C@@H](C(=O)N[C@H](C(N)=O)[C@@H](C)O)NC(=O)[C@H](CCCNC(=N)N)NC(=O)[C@H](Cc2c[nH]cn2)NC(=O)[C@H](CC(=O)O)NC(=O)CNC(=O)[C@H](Cc2c[nH]c3ccccc23)NC(=O)[C@H](CC(=O)O)NC(=O)[C@H](CCC(N)=O)NC(=O)[C@H](Cc2c[nH]c3ccccc23)NC(=O)[C@H]([C@@H](C)CC)NC1=O
B10: Compound 25 (peptide)
peptide: Ac-ICIWQDWGEHRCTEA-NH2
modifications: disulfide 2-12
SMILES: CC[C@H](C)[C@H](NC(C)=O)C(=O)N[C@H]1CSSC[C@@H](C(=O)N[C@H](C(=O)N[C@@H](CCC(=O)O)C(=O)N[C@@H](C)C(N)=O)[C@@H](C)O)NC(=O)[C@H](CCCNC(=N)N)NC(=O)[C@H](Cc2c[nH]cn2)NC(=O)[C@H](CCC(=O)O)NC(=O)CNC(=O)[C@H](Cc2c[nH]c3ccccc23)NC(=O)[C@H](CC(=O)O)NC(=O)[C@H](CCC(N)=O)NC(=O)[C@H](Cc2c[nH]c3ccccc23)NC(=O)[C@H]([C@@H](C)CC)NC1=O
B11: Compound 18 (peptide)
peptide: Ac-ICIWQDWGRHRCT-NH2
modifications: disulfide 2-12
SMILES: CC[C@H](C)[C@H](NC(C)=O)C(=O)N[C@H]1CSSC[C@@H](C(=O)N[C@H](C(N)=O)[C@@H](C)O)NC(=O)[C@H](CCCNC(=N)N)NC(=O)[C@H](Cc2c[nH]cn2)NC(=O)[C@H](CCCNC(=N)N)NC(=O)CNC(=O)[C@H](Cc2c[nH]c3ccccc23)NC(=O)[C@H](CC(=O)O)NC(=O)[C@H](CCC(N)=O)NC(=O)[C@H](Cc2c[nH]c3ccccc23)NC(=O)[C@H]([C@@H](C)CC)NC1=O
B12: Compound 13 (peptide)
peptide: Ac-ICIWQDWGEHRC[Sar]-NH2
modifications: disulfide 2-12
SMILES: CC[C@H](C)[C@H](NC(C)=O)C(=O)N[C@H]1CSSC[C@@H](C(=O)N(C)CC(N)=O)NC(=O)[C@H](CCCNC(=N)N)NC(=O)[C@H](Cc2c[nH]cn2)NC(=O)[C@H](CCC(=O)O)NC(=O)CNC(=O)[C@H](Cc2c[nH]c3ccccc23)NC(=O)[C@H](CC(=O)O)NC(=O)[C@H](CCC(N)=O)NC(=O)[C@H](Cc2c[nH]c3ccccc23)NC(=O)[C@H]([C@@H](C)CC)NC1=O
B13: Compound 16 (peptide)
peptide: Ac-ICIWQEWGEHRCT-NH2
modifications: disulfide 2-12
SMILES: CC[C@H](C)[C@H](NC(C)=O)C(=O)N[C@H]1CSSC[C@@H](C(=O)N[C@H](C(N)=O)[C@@H](C)O)NC(=O)[C@H](CCCNC(=N)N)NC(=O)[C@H](Cc2c[nH]cn2)NC(=O)[C@H](CCC(=O)O)NC(=O)CNC(=O)[C@H](Cc2c[nH]c3ccccc23)NC(=O)[C@H](CCC(=O)O)NC(=O)[C@H](CCC(N)=O)NC(=O)[C@H](Cc2c[nH]c3ccccc23)NC(=O)[C@H]([C@@H](C)CC)NC1=O
B14: Compound 144 (peptide)
peptide: Ac-SEFCI[Trp(1-Me)]QDW[Sar]EHRC[Sar]E-{AEEA-AEEA-X1-NH2}
modifications: disulfide 4-14
SMILES: CC[C@H](C)[C@@H]1NC(=O)[C@@H](NC(=O)[C@H](Cc2ccccc2)NC(=O)[C@H](CCC(=O)O)NC(=O)[C@H](CO)NC(C)=O)CSSC[C@@H](C(=O)N(C)CC(=O)N[C@@H](CCC(=O)O)C(=O)NCCOCCOCC(=O)NCCOCCOCC(=O)N[C@@H](CCCCNC(=O)CC[C@H](NC(=O)CNC(=O)CC[C@H](NC(=O)CCCCCCCCCCCCCCCCC(=O)O)C(=O)O)C(=O)O)C(N)=O)NC(=O)[C@H](CCCNC(=N)N)NC(=O)[C@H](Cc2c[nH]cn2)NC(=O)[C@H](CCC(=O)O)NC(=O)CN(C)C(=O)[C@H](Cc2c[nH]c3ccccc23)NC(=O)[C@H](CC(=O)O)NC(=O)[C@H](CCC(N)=O)NC(=O)[C@H](Cc2cn(C)c3ccccc23)NC1=O

Each binder was assayed against Human C3 (Complement tech cat #A113c) (human, UniProt P01024 23-1663) (assay: cell-based or functional assay).
Sequence of Human C3 (Complement tech cat #A113c) (P01024 23-1663 limits assumed): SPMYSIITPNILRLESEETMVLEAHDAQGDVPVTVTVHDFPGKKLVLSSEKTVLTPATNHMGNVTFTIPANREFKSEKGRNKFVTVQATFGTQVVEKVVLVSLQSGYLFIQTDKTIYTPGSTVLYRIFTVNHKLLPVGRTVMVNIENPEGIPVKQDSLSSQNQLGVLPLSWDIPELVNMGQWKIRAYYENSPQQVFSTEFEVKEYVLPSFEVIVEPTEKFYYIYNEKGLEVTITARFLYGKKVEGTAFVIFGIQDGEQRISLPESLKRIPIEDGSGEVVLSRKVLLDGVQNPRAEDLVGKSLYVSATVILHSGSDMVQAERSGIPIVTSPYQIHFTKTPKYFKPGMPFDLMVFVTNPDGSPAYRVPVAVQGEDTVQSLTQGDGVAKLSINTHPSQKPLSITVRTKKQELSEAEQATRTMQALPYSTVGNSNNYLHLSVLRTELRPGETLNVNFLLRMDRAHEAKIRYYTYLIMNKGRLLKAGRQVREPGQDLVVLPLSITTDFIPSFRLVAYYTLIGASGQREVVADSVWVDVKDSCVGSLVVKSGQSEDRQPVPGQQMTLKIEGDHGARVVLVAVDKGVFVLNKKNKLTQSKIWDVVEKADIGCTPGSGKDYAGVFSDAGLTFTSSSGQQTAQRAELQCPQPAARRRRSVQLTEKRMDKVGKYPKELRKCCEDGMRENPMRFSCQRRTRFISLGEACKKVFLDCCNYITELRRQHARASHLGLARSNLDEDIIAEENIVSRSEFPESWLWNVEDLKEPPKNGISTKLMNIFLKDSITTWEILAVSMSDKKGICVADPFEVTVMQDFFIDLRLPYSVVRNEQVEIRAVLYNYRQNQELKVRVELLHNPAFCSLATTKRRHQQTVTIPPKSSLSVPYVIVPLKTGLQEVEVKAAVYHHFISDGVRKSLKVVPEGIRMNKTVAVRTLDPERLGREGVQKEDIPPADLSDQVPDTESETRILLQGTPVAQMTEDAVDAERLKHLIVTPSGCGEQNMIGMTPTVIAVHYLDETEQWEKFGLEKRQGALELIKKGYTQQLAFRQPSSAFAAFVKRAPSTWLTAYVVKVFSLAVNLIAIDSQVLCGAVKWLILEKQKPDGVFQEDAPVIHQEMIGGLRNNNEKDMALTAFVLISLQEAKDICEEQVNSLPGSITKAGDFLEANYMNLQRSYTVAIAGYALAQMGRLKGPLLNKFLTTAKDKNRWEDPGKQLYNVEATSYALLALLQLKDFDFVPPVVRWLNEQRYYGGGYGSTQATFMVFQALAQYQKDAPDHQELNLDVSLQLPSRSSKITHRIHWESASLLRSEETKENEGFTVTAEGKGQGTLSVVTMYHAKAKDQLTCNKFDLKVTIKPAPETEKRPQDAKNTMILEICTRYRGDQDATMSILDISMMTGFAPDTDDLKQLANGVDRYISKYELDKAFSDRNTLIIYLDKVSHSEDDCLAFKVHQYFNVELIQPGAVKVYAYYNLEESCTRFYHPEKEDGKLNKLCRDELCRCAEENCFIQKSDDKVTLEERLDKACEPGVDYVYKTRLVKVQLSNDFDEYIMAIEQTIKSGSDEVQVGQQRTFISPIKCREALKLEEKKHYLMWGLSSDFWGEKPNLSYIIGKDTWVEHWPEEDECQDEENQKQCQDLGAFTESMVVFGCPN

**Q.** Which “inhibition of hemolysis IC50” value does the source give for B1 here?
**A.** < 100 nM

**Q.** Which “inhibition of hemolysis IC50” value does the source give for B2 here?
**A.** < 100 nM

**Q.** Which “inhibition of hemolysis IC50” value does the source give for B3 here?
**A.** < 100 nM

**Q.** With B4 as the binder, how does the “inhibition of hemolysis IC50” value read?
**A.** < 100 nM

**Q.** For B5, which “inhibition of hemolysis IC50” value is on record?
**A.** < 100 nM

**Q.** For B6, which “inhibition of hemolysis IC50” value is on record?
**A.** < 100 nM

**Q.** How did the “inhibition of hemolysis IC50” value turn out when B7 was run?
**A.** < 100 nM

**Q.** For B8, which “inhibition of hemolysis IC50” value is on record?
**A.** < 100 nM

**Q.** Which “inhibition of hemolysis IC50” value does the source give for B9 here?
**A.** < 100 nM

**Q.** With B10 as the binder, how does the “inhibition of hemolysis IC50” value read?
**A.** < 100 nM

**Q.** For B11, which “inhibition of hemolysis IC50” value is on record?
**A.** < 100 nM

**Q.** B12 was tested. Which “inhibition of hemolysis IC50” value did it give?
**A.** < 100 nM

**Q.** How did the “inhibition of hemolysis IC50” value turn out when B13 was run?
**A.** < 100 nM

**Q.** How did the “inhibition of hemolysis IC50” value turn out when B14 was run?
**A.** < 100 nM
